Reference: paper PMC5173029

Molecular target: Recombinant FIP-sch3 from Stachybotrys chartarum (Stachybotrys chartarum IBT 7711)
Experiment: SEC; Superdex 75 (10/300 GL) gel filtration in PBS (10 mM, pH 7.2) after the GST tag was removed; markers 66, 43, 29 and 17 kDa; calculated mass about 28.3 kDa against 14.1 kDa for the monomer

How did the stoichiometry N turn out when “Recombinant FIP-sch3 from Stachybotrys chartarum (natural protein)” was run?
Its stoichiometry N is 2.
